From PMC3733929, “Analysis of Mutations in Neurospora crassa ERMES Components Reveals Specific Functions Related to β-Barrel Protein Assembly and Maintenance of Mitochondrial Morphology” (PLoS ONE, 2013)

Molecular target: the molecule itself
Assay: non-reducing SDS-PAGE and Western blot; isolated mitochondria dissolved in cracking buffer (0.06 M Tris-HCl pH 6.8, 2.5% SDS, 5% sucrose) without β-mercaptoethanol; anti-HA blot; disulphide-bonded form at about 100 kDa

B1: Mmm1-HA (N. crassa Mmm1 with a C-terminal triple hemaglutinin epitope tag) (natural protein, Neurospora crassa, UniProt Q9P353 1-415, looked up)
chain: MADICPSRSEPTLSFTQGLILGQLSVVLLLAAFIKFFIFGDPPSPEVVASIRATDRRSRTLAHKKSILSLRETNALQLVQNPALNKKHVLRPGPPILTIGSILSKTYYKVDSHQPESLDWFNVLIAQTIAQFRSDAQHDDAILSSLSKALNGTARPDFLDEIKVTELSLGEDFPIFSNCRIIPVDEDGLSFGTGKAFDANMATREGARLQARMDVDLSDMITLAVETKLLLNYPKRLSAVLPVALAVSVVRFSGTLSISFIPSNPSNNEPAKMIFTFLDDYRLDFSIRSLLGSRSRLQDVPKIAQLVESRLHRWFDERCVEPRFQEIALPNMWPRKKNTRGGDETISDVERSMSKAKGVDIAKDVREEARKEIEAEAHGGADRVPDSLRYRHRPRADEEFPGAGSMPGSMPGSMP
notes: Mmm1, Neurospora crassa; also called HA-tagged Mmm1; Mmm1-HA3; source: N. crassa Δmmm1 transformed with pMmm1-HA (endogenous mmm1 promoter; strains Mmm1-HA3, Mmm1-HA5, Mmm1-HA8), in isolated mitochondria or post mitochondrial pellet; not shown: 3xHA, C-terminal, kept
stoichiometry N: 2
